Two compounds from US20250032627A1, “T[…] BASED UPON DRUG CONJUGATES” (priority 2023, published 2025) can be followed below.

The nature of data set [1]: Solubility and stability of CPT-K3 in borate buffer precursor solution. It is filed as physicochemical. From the text:
Referring now to FIG. 3, CPT-K3 remains stable in a clear precursor solution.

The next data set deals with U87 glioblastoma cells. Put plainly: In vitro cytotoxicity, cell viability by SRB method. It is filed as cell-based, human. The following applies: CPT compared with CPT-K3. The method, then:
FIG. 10A is a table providing the IC50 of CPT and CPT-K3. FIG. 10B is a plot of cell viability (%) vs. concentration;
FIG. 10A is a table providing the IC50 of CPT and CPT-K3. FIG. 10B is a plot of cell viability (%) vs. concentration. In this example, cell viability (%) was determined using the SRB method.

`CC[C@@]1(OC(=O)CCC(=O)N[C@@H](CCCCN)C(=O)N[C@@H](CCCCN)C(=O)N[C@@H](CCCCN)C(=O)O)C(=O)OCc2c1cc1n(c2=O)Cc2cc3ccccc3nc2-1` [CPT-K3]: the “stability in borate buffer (time stable)” value in data set [1] (75-mM borate buffer) is “at least 24 hours”. Further, the “solubility in borate buffer” value in data set [1] (borate buffer) is reported as “good solubility”. In addition, in the data set with U87 glioblastoma cells, the “cytotoxicity against the U87 glioblastoma cell line” value is recorded as “comparable cytotoxicity”.
Turning to `CC[C@@]1(O)C(=O)OCc2c1cc1n(c2=O)Cc2cc3ccccc3nc2-1` [CPT, camptothecin, reference compound], the “cytotoxicity against the U87 glioblastoma cell line” value with U87 glioblastoma cells is “comparable cytotoxicity”.
